Data taken from US20260125454A1 (SHANGHAI JUNSHI BIOSCIENCES, published 2026).
Substitutions are numbered along the chain they refer to. Where two headings read alike, the source gives them in different places.

T1: Biotin-huCGRPaSA (human, not fully specified; biotin (position not given))
T1 construct: exact construct ('aSA') not explained; also called Biotin CGRPaSA; full-length (1-37) CGRP
T1 peptide: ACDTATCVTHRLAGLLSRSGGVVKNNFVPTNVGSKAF

T2: synthetic human α-CGRP polypeptide (SEQ ID NO: 97)-NH2 (human, C-terminal phenylalanine amide (F-NH2); one intrachain disulfide bond between the two CYS residues (printed as positions 7 and 12))
T2 construct: Analyte in solution (50 nM) in the pH-dependence BLI assay
T2 peptide: T1 peptide

T3: human β-CGRP (human, UniProt P10092 82-118, not fully specified)
T3 construct: mature; also called human full-length (1-37) β-CGRP polypeptide (Anaspec)
T3 peptide (looked up): T1 peptide with D3N, V22M, N25S

B1: C79 (antibody, V domains shown)
VH: EVQLQQSGPELVKPGASVKISCKTSGYTFIDFNMHWVKQSHGKSLEWIGYIYPYNGDVVYNQNFTNKATLTVDSSSSTAYMELRRVTSEDSAIYYCAREGLGGYWGQGTTLTVSS
VL: DVVLTQSPTSLAVSLGQRATISCQASQNIDGNTYMNWYQQKPGQPPKVLIYSIFNLESGIPARFSGSGSGTHFTLTIHPVEEEDAATYYCQQSNDYPYTFGGGTKLEIK
notes: 1F5-HC + 2B8-LC2; chimeric, human constant regions
B2: C117 (antibody, V domains shown)
VH: EVQLQQSGPELVKPGASVKISCKASGYTFTDYNMHWVKQSHGKSLEWIGNIYPYNGGTVYNQKFNNKATLTVHTSSSTAYMDLRSLTSDDSAVYYCAREGLGGYWGQGTTLTVSS
VL: DIVLTQSPASLAVSLGQRATISCKASQNIDYDGYAYLNWYQQKPGQPPKVLIYSVFNLESGIPARFSGSGSGTDFTLNIHPVEEEDAATYYCQQSNEFPYTFGGGTKLEVK
notes: 2B8-HC1 + 1A2-LC2; chimeric, human constant regions
B3: hu224 (antibody, human IgG4 S228P, kappa, V domains shown)
VH: QVQLVQSGAEVKKPGASVKVSCKASGYSFTGYTMNWVRQAPGQRLEWMGLINPYIGNTHYNQKFKDRVTFTVDRSSSTAYMELSSLRSEDTAVYYCARELDSGFDYWGQGTLVTVSS
VL: DVVMTQSPDSLAVSLGERATINCRSSQNIVHSNGDTYLEWYQQKPGQPPKLLIYKVSNRFSGVPDRFSGSGSGTDFTLTISSLQAEDVAVYYCYQGSHVPWTFGQGTKLEIKR
B4: C269 (antibody, V domains shown)
VH: B2 VH with A24T, N50Y, Y52S, V59A, N65K, N66F, A68S, H73D, D82E, D89E
VL: B2 VL with A35T, V55I, F98V, V110I
notes: 3E5-HC + 3E5-LC; chimeric, human constant regions
B5: 3C1 (antibody, V domains shown)
VH: EVQLQQSGPELVKPGASMKISCKASGYSFTGYTMNWVKQSHGNNLEWIGLINPYIGNTHYNQKFKDKATFTVDRSSSTAYMALLSLTSEDSAVYYCARELDSGFDYWGQGTTLTVSS
VL: DVLMTQTPLSLPVSLGDQASLSCRSSQNIVHSNGDTYLEWYLQKPGQSPKLLIYKVSNRFSGVPDRFSGSGSGTDFTLKISRVEAEDLGVYYCYQGSHVPWTFGGGTKLEIK
notes: murine hybridoma supernatant; also called hybridoma antibody 3C1
B6: 3E5 (antibody, V domains shown)
VH: B2 VH with A24T, N50Y, Y52S, V59A, N65K, N66F, A68S, H73D, D82E, D89E
VL: B2 VL with A35T, V55I, F98V, V110I
notes: murine hybridoma supernatant; also called hybridoma antibody 3E5

Legend:
CGRP antigen [1] = assay: cell-based or functional assay
CGRP antigen [2] = assay: cell-based or functional assay; remark: listed apart in the source
Biotin-huCGRPaSA [3] = target: T1, Biotin-huCGRPaSA; assay: ELISA, transfection supernatant, biotin-CGRP on streptavidin
Description: Streptavidin was diluted to 0.5 μg/mL by using PBS (Hyclone) and added into a plate at 100 μL/well. The plate was incubated in a thermostat incubator at 37° C. for 90 min and then washed. 2% BSA was added to the plate at 200 μL/well, and the plate was incubated in the thermostat incubator at 37° C. for 90 min and washed. Biotin-huCGRPaSA was diluted to 2.0 μg/mL with 2% BSA and added into the plate at 100 μL/well, and the plate was incubated in the thermostat incubator at 37° C. for 60 min. The reference antibody (47-RM) was diluted to 2500 ng/ml with a diluent (2% BSA) and serially 4-fold diluted to 0.15 ng/mL, and the chimeric antibodies were diluted with a cell supernatant stock solution. All the chimeric antibody solutions and the reference antibody solution were added into plates at 80 μL/well, and the plates were incubated in a thermostat incubator at 37° C. for 60 min and washed. An HRP-conjugated mouse anti-human antibody IgG4 (manufacturer: Southern Biotech, Cat. No. 9200-05; Fc specificity) was diluted 5000-fold with 2% BSA and added into the plates at 100 μL/well, and the plates were incubated in the thermostat incubator at 37° C. for 60 min and washed. 0.1 mg/mL chromogenic reagent TMB was carefully added at 100 μL/well to avoid bubbles, and the system was incubated at 37° C. for 10 min away from light for chromogenic reaction. Finally, a 2 M hydrochloric acid solution was added at 100 μL/well to stop the reaction while avoiding bubbles, and the plates were read on a microplate reader within 10 min (the detection wavelength was 450 nm; the reference wavelength was 620 nm).

Biotin-huCGRPaSA [4] = target: T1, Biotin-huCGRPaSA; assay: ELISA, purified antibody; relative to reference 47-RM-20190815
Description: Streptavidin was diluted to […] by using PBS (Hyclone) and added into a plate at 100 μL/well. The plate was incubated in a thermostat incubator at 37° C. for 90 min and then washed. 2% BSA was added to the plate at 200 μL/well, and the plate was incubated in the thermostat incubator at 37° C. for 90 min and washed. Biotin-huCGRPaSA was diluted to 2.0 μg/mL with 2% BSA and added into the plate at 100 μL/well, and the plate was incubated in the thermostat incubator at 37° C. for 60 min. The chimeric antibodies in Table 3 and reference antibody (47-RM-20190815) were diluted to 1000 ng/ml with a diluent (2% BSA) and serially 10-fold diluted to 1 ng/mL. All the chimeric antibody solutions and the reference antibody solution were added into plates at 100 μL/well, and the plates were incubated in a thermostat incubator at 37° C. for 60 min and washed. An HRP-conjugated mouse anti-human antibody IgG4 (manufacturer: Southern Biotech, Cat. No. 9200-05; Fc specificity) was diluted 5000-fold with 2% BSA and added into the plates at 100 μL/well, and the plates were incubated in the thermostat incubator at 37° C. for 60 min and washed. 0.1 mg/mL chromogenic reagent TMB was carefully added at 100 μL/well to avoid bubbles, and the system was incubated at 37° C. for 5 min away from light for chromogenic reaction. Finally, a 2 M hydrochloric acid solution was added at 100 μL/well to stop the reaction while avoiding bubbles, and the plates were read on a microplate reader within 10 min (the detection wavelength was 450 nm; the reference wavelength was 620 nm). EC₅₀ was fit by using a four-parameter logistic regression (4PL) model.

CGRP antigen [5] = assay: cell-based or functional assay; remark: listed apart in the source
[6] = target: T2, synthetic human α-CGRP polypeptide (SEQ …); assay: BLI (Octet), antibody on AHC2, 50 nM CGRP; association pH 7.4, dissociation pH 7.4
Description: (§1) The association/dissociation profiles for three antibodies Hu224, galcanezumab analogue and fremanezumab analogue binding to the antigen human α-CGRP in solutions at different pH (7.4 and 5.5) were determined on an Octet RBD96e system. The pH 7.4 buffer contained 10 mM HEPES (pH 7.4), 150 mM sodium chloride, 3 mM EDTA, and 0.05% P20. The pH 5.5 buffer contained 10 mM NaAc (pH 5.5), 150 mM sodium chloride, and 0.05% P20. The three antibodies Hu224, galcanezumab analogue, and fremanezumab analogue were immobilized on the surfaces of AHC2 bioprobes (Sartorius, Cat. No. 18-5142) at 10 μg/mL, respectively. 50 nM human α-CGRPs diluted in different pH (7.4 and 5.5) buffers were used to bind to the antibodies during the 0 to 200 s antigen association phase, and different pH (7.4 and 5.5) buffers were used to wash during the 0 to 200 s antigen dissociation phase. The conditions were pH 7.4 association and pH 7.4 dissociation, pH 7.4 association and pH 5.5 dissociation, and pH 5.5 association and pH 5.5 dissociation. The binding signals of the antigen at the time of injection for 200 s were calculated using analytical software and fitted to give the dissociation constant kd. The amino acid sequence of the synthetic human α-CGRP polypeptide fragment is […] […]

[7] = target: T2, synthetic human α-CGRP polypeptide (SEQ …); assay: BLI (Octet), antibody on AHC2, 50 nM CGRP; association pH 5.5, dissociation pH 5.5
Description: as §1

Biotin-huCGRPaSA [8] = target: T1, Biotin-huCGRPaSA; assay: ELISA, supernatant; relative to chimeric C245
Procedure, shortened: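 Antibodies, including reference chimeric C245, titrated 2.5-fold from 1000 ng/mL and incubated 60 min at 37°C on wells coated with 1.0 μg/mL biotin-CGRPaSA and blocked with 2% BSA. Bound IgG detected with HRP anti-human Fc antibody and TMB, acid-stopped, absorbance 450/620 nm.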

[9] = target: T2, synthetic human α-CGRP polypeptide (SEQ …); assay: BLI (Octet), antibody on AHC2, 50 nM CGRP; association pH 7.4, dissociation pH 5.5
Description: as §1

CGRP antigen [10] = assay: cell-based or functional assay; remark: listed apart in the source
human β-CGRP = target: T3, human β-CGRP; assay: ELISA, hybridoma supernatant

Binder | Relative binding activity (%) vs Ref(Teva) (CGRP antigen [1]) [%] | OD value (Biotin-huCGRPaSA [3]) [OD] | Relative activity (%) (Biotin-huCGRPaSA [4]) | binding result (human β-CGRP) | further results
B1 | 71.1 | 3.03 | 59.8 |  | Relative binding activity (%) vs Ref(Teva) (CGRP antigen [2]): 71.1%
B2 | 74.1 | 3.06 | 31.7 |  | 
B3 |  |  |  |  | IC50 (CGRP antigen [5]): 0.0224 µg/mL; relative activity (%) vs C245 (CGRP antigen [5]): 80%; koff [6]: 0.000265 s⁻¹; koff [7]: 0.0141 s⁻¹; Relative binding activity, % (Biotin-huCGRPaSA [8]): 82%; koff [9]: 0.0143 s⁻¹
B4 |  | 2.91 | 101 |  | EC50 (so labelled in the table under the curves; half-maximal inhibition of the CGRP-induced luciferase signal in SK-N-MC CRE 2E9 reporter cells, CGRP antigen at 4 ng/mL) (CGRP antigen [10]): 0.143 µg/mL
B5 |  |  |  | binds | 
B6 |  |  |  | binds | 
